Target: nucleosome with Cy5-labeled human histone octamer (H2A(K119C), H2B, H3(C110A), H4) reconstituted on lambda DNA (human) (UniProt P06899)
Experiment: single-molecule fluorescence colocalisation

nucleosome co-localization dwell time τ slow (with 2 nM Nap1): 1.1 s
Substance: Cy3-labeled human linker histone H1.0(S22C) (from UniProt P07305 1-194) (natural protein)
